In patent US9701713B2, “Compositions and methods for introduction of macromolecules into cells” (The Regents of the University of Colorado, a body corporate, priority 2011, dated 2017):

B1: TAT-αB crystallin: αB crystallin fused to the TAT cell-penetrating peptide (GRKKRRQRRRPQ) of human immunodeficiency virus (protein)
chain: GRKKRRQRRRPQDIAIHHPWIRRPFFPFHSPSRLFDQFFGEHLLESDLFPTSTSLSPFYLRPPSFLRAPSWFDTGLSEMRLEKDRFSVNLDVKHFSPEELKVKVLGDVIEVHGKHEERQDEHGFISREFHRKYRIPADVDPLTITSSLSSDGVLTVNGPRKQVSGPERTIPITREEKPAVTAAPKK
B2: αB crystallin: recombinant human αB-crystallin (HSPB5) without transduction peptide, used as comparator (protein)
chain: MDIAIHHPWIRRPFFPFHSPSRLFDQFFGEHLLESDLFPTSTSLSPFYLRPPSFLRAPSWFDTGLSEMRLEKDRFSVNLDVKHFSPEELKVKVLGDVIEVHGKHEERQDEHGFISREFHRKYRIPADVDPLTITSSLSSDGVLTVNGPRKQVSGPERTIPITREEKPAVTAAPKK

Columns and labels:
P23H rhodopsin = target: T1, P23H rhodopsin (Homo sapiens, UniProt P08100, P23H); experiment: Cell model of aggregation-prone P23H rhodopsin; type: cell-based; settings: aggregation-prone mutant P23H rhodopsin
T1 construct: expressed in transfected cells
Source text: As shown, α crystallin prevents aggregation of the aggregation-prone mutant of rhodpsin, P23H rhodopsin.
This mutation is the cause of the major form of retinitis pigmentosa in humans.

lysozyme = experiment: Chaperone-like activity: suppression of chemically-induced lysozyme aggregation; type: biochemical; settings: lysozyme with dithiothreitol at 37° C.
Source text: The “Relative Absorbance (360 nm)” of lysozyme increases over time under assay conditions. The absorbance increase is an index of protein aggregation. A reduction in the slope of absorbance increase corresponds to inhibition of lysozyme aggregation.
Recombinant human αA- and αB-crystallins were modified by addition of putative transduction sequences at their N- or C-termini. These proteins were expressed in E. coli and isolated to apparent homogeneity using previously published methods (Cobb et al. 2000). Purified proteins were analyzed by size exclusion chromatography to determine size heterogeneity. CLA was assessed by measuring the ability of candidate proteins to suppress chemically-induced aggregation of substrate protein lysozyme in the presence of dithiothreitol at 37° C.

human lens cells = experiment: Cell penetration and retention of AlexaFluor labeled crystallin in human lens cells over 3 days; type: cell-based; settings: 60 minutes exposure
Protocol: αB crystallin, with or without fusion to the NTD peptide, was labeled with the small molecular weight fluorescent molecule AlexaFluor. It was then combined with tissue culture nutrient media and applied to a culture plate containing human lens cells. After 60 minutes, the culture media were removed, and replaced with culture media without crystallins. Entry and distribution of crystallins was measured over 3 days by observing fluorescence (green). Cell nuclei were stained with Hoechst dye (blue).

[1] = test system: human lens epithelial cells (HLE B3); experiment: Uptake of Alexa Fluor 488 labeled crystallins into human lens epithelial cells; type: cell-based; settings: Alexa Fluor 488 label, equal amounts of protein
Protocol: Since in vitro properties of alpha crystallin were unaffected by the addition of the NTD peptide, the ability of the NTD tag to enhance uptake of client proteins into living cells was investigated. To monitor cell uptake, wild type and NTD tagged crystallins were labeled with Alexa Fluor 488, a small reporter molecule. Equal amounts of protein were added to separate tissue culture plates containing human lens epithelial cells (HLE B3) and analyzed for their uptake into cells. At various times after addition of the protein to the cell media, cells were fixed and analyzed by fluorescent microscopy for cellular uptake of the labeled proteins. […] (See FIG. 1 and FIG. 6).
Further, αA- and αB-crystallins with and without the NTD tag were fluorescently-labeled using the fluorescent reporter molecule Alexa Fluor 488, and were incubated with human lens epithelial cells (HLE B3) and human embryonic kidney cells (HEK293). Time-dependent uptake was measured by fluorescent microscopy. At various times after addition of the protein to the cell media, cells were fixed and analyzed by fluorescent microscopy for cellular uptake of the labeled proteins.

Molecule	fluorescence of P23H rhodopsin (prevention of aggregation) (P23H rhodopsin)	chaperone-like activity (suppression of lysozyme aggregation, absorbance 360 nm) (lysozyme)	intracellular crystallin fluorescence (human lens cells; after 48 hours)	intracellular crystallin fluorescence (human lens cells; after 72 hours)	intracellular fluorescence (cellular uptake) [1]
alpha crystallin: alpha crystallin with chaperone-like activity applied to cells; b52 and b54 name it αA crystallin	prevented the loss of fluorescence	–	–	–	–
B1	–	does not suppress lysozyme aggregation	–	–	–
B2	–	effectively suppress lysozyme aggregation	substantially lost	virtually undetectable	comparatively little intracellular fluorescence
